According to US20180105572A1:

Each substance was assayed against α4β7 integrin on RPMI 8866 cells (UniProt P13612) (assay: cell-based or functional assay).
“C-N cyclic peptide SEQ ID NO: 477, Cyclo(a-(N-Me-R)-S-D-T-L-a)” was tested, and the Cell Adhesion A4B7 (nM); RPMI 8866 cells adhering to plate-bound rh MAdCAM-1/Fc Chimera, MTT read-out was greater than 10000 nM.
With “C-N cyclic peptide SEQ ID NO: 479, cyclo<a-(N-Me-R)-S-D-T-L-n>” the Cell Adhesion A4B7 (nM); RPMI 8866 cells adhering to plate-bound rh MAdCAM-1/Fc Chimera, MTT read-out was greater than 10000 nM.
Substance “C-N cyclic peptide SEQ ID NO: 484, cyclo<a-(N-Me-R)-S-D-T-L-e>” has a Cell Adhesion A4B7 (nM); RPMI 8866 cells adhering to plate-bound rh MAdCAM-1/Fc Chimera, MTT read-out greater than 1000 nM.
Work on “C-N cyclic peptide SEQ ID NO: 495, cyclo<f-(N-Me-R)-S-D-T-L-a>” yielded a Cell Adhesion A4B7 (nM); RPMI 8866 cells adhering to plate-bound rh MAdCAM-1/Fc Chimera, MTT read-out greater than 10000 nM.

Each substance was assayed against rh integrin α4β7 (R&D Systems #5397-A30) (human) (UniProt P13612) (assay: α4β7-MAdCAM competition ELISA).
With “C-N cyclic peptide SEQ ID NO: 478, cyclo<a-(N-Me-R)-S-D-T-L-n>” the IC50 was greater than 1000 nM.
With “C-N cyclic peptide SEQ ID NO: 480, cyclo<h-(N-Me-R)-S-D-T-L-a>” the IC50 was greater than 1000 nM.
“C-N cyclic peptide SEQ ID NO: 482, cyclo<a-(N-Me-R)-S-D-T-L-e>” gave an IC50 greater than 1000 nM.
For “C-N cyclic peptide SEQ ID NO: 483, cyclo<a-(N-Me-R)-S-D-T-L-e>”, the IC50 was greater than 1000 nM.
For “C-N cyclic peptide SEQ ID NO: 485, cyclo<k-(N-Me-R)-S-D-T-L-a>”, the IC50 was greater than 1000 nM.
Work on “C-N cyclic peptide SEQ ID NO: 486, cyclo<k-(N-Me-R)-S-D-T-L-a>” yielded an IC50 greater than 1000 nM.
“C-N cyclic peptide SEQ ID NO: 489, cyclo<a-(N-Me-R)-S-D-T-L-l>” showed an IC50 greater than 1000 nM.
“C-N cyclic peptide SEQ ID NO: 490, cyclo<a-(N-Me-R)-S-D-T-L-h>” showed an IC50 greater than 1000 nM.
With “C-N cyclic peptide SEQ ID NO: 492, cyclo<a-(N-Me-R)-S-D-T-L-f>” the IC50 was greater than 1000 nM.
“C-N cyclic peptide SEQ ID NO: 494, cyclo<f-(N-Me-R)-S-D-T-L-a>” showed an IC50 greater than 1000 nM.
In the case of “C-N cyclic peptide SEQ ID NO: 496, cyclo<l-(N-Me-R)-S-D-T-L-a>”, the IC50 is reported as greater than 1000 nM.
“C-N cyclic peptide SEQ ID NO: 498, cyclo<p-(N-Me-R)-S-D-T-L-a>” gave an IC50 greater than 1000 nM.
With “C-N cyclic peptide SEQ ID NO: 500, cyclo<r-(N-Me-R)-S-D-T-L-a>” the IC50 was greater than 1000 nM.
For “C-N cyclic peptide SEQ ID NO: 502, cyclo<A-(N-Me-R)-S-D-T-L-a>”, the IC50 was greater than 1000 nM.
Substance “C-N cyclic peptide SEQ ID NO: 503, cyclo<A-(N-Me-R)-S-D-T-L-k>” has an IC50 greater than 1000 nM.
With “C-N cyclic peptide SEQ ID NO: 504, cyclo<a-(N-Me-R)-S-D-T-L-A-a>” the IC50 was greater than 1000 nM.
